From patent US20120115948A1

Molecular target: mitotic APC (Anaphase-Promoting Complex immunoprecipitated from mitotic Xenopus extract) (Xenopus)
Test: immunoprecipitated APC-Cdc20 resuspended in mitotic extract with TAME, beads re-isolated, Western blot

Cdc20 (endogenous Xenopus Cdc20)
half-life of dissociation: 1 min
